Test results taken from article PMC6396981.

Biological target: MTs coated with His-mCherry-SEPT9 (10 nM) (bovine (methods) or porcine (Key Resources Table) | human) (UniProt P02550)
Assay: single-molecule TIRF motility assay

fold landing rate against SEPT9-free MTs: 2 fold
Substance: KIF5C(1–560)-L12_(KIF1A)-mCit (from UniProt P56536 1-560) (domain or fragment)
